Data from publication PMC4079599, “Mixed Disulfide Formation at Cys141 Leads to Apparent Unidirectional Attenuation of Aspergillus niger NADP-Glutamate Dehydrogenase Activity” (PLoS ONE, 2014).

Key:
[1] = biological target: T1, AnGDH (NADP-glutamate dehydrogenase from Aspergillus niger, recombinant) (Aspergillus niger, UniProt B6V7E4); assay: time-dependent inactivation of forward activity, kapp versus concentration; type: biochemical; settings: covalent, mixed disulfide at Cys141; incubation at 37°C; residual activity in standard forward assay pH 8.0
T1 construct: full-length cDNA in pET43.1(b) NdeI/HindIII, E. coli BL21(DE3), without a tag, purified
T1 sequence (B6V7E4 1-460): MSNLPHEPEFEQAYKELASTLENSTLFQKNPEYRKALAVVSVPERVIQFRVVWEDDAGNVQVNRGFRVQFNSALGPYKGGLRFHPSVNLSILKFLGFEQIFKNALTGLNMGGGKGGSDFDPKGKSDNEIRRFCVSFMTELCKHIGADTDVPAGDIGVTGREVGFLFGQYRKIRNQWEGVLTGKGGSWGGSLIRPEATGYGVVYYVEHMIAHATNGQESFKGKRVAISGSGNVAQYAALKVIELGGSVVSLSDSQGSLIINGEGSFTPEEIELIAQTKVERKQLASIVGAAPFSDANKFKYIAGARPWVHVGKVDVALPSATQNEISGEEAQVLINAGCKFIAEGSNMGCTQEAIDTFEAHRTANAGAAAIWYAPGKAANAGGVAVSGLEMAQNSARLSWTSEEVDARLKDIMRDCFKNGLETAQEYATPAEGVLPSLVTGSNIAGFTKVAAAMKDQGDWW

O=C(O)CCC(=O)C(=O)O = tested on: T2, O=C(O)CCC(=O)C(=O)O; assay: purified protein; type: biochemical, Aspergillus niger; settings: forward reaction, sigmoid saturation, Tris-HCl pH 8.0, ammonium chloride and NADPH, room temperature
T2 construct: full-length cDNA in pET43.1(b) NdeI/HindIII, E. coli BL21(DE3), without a tag, purified

N[C@@H](CCC(=O)O)C(=O)O = tested on: T3, N[C@@H](CCC(=O)O)C(=O)O; assay: purified protein; type: biochemical, Aspergillus niger; settings: reverse reaction, Tris-HCl pH 9.3, NADP+, room temperature
T3 construct: full-length cDNA in pET43.1(b) NdeI/HindIII, E. coli BL21(DE3), without a tag, purified

N = assay: purified protein; settings: forward reaction, Tris-HCl pH 8.0, 2-oxoglutarate and NADPH, room temperature
[2] = biological target: T1, AnGDH (NADP-glutamate dehydrogenase from Aspergillus niger, recombinant); assay: residual forward activity after […] h incubation; type: biochemical; settings: covalent; saturated cystine (0.47 mM), 1 h, 37°C; standard forward assay pH 8.0
purified protein [3] = substrate: N[C@@H](CCC(=O)O)C(=O)O; assay: purified protein; type: biochemical, Aspergillus niger; settings: reverse reaction, Tris-HCl pH 9.3, NADP+, room temperature
purified protein [4] = substrate: O=C(O)CCC(=O)C(=O)O; assay: purified protein; type: biochemical, Aspergillus niger; settings: forward reaction, sigmoid saturation, Tris-HCl pH 8.0, ammonium chloride and NADPH, room temperature
purified protein [5] = substrate: NC(=O)C1=CN([C@@H]2O[C@H](COP(=O)(O)OP(=O)(O)OC[C@H]3O[C@@H](n4cnc5c(N)ncnc54)[C@H](OP(=O)(O)O)[C@@H]3O)[C@@H](O)[C@H]2O)C=CC1; assay: purified protein; type: biochemical, Aspergillus niger; settings: forward reaction, Tris-HCl pH 8.0, 2-oxoglutarate and ammonium chloride, room temperature
purified protein [6] = substrate: NC(=O)c1ccc[n+]([C@@H]2O[C@H](COP(=O)(O)OP(=O)(O)OC[C@H]3O[C@@H](n4cnc5c(N)ncnc54)[C@H](OP(=O)(O)O)[C@@H]3O)[C@@H](O)[C@H]2O)c1; assay: purified protein; type: biochemical, Aspergillus niger; settings: reverse reaction, Tris-HCl pH 9.3, L-glutamate, room temperature
purified protein [7] = substrate: N; assay: purified protein; settings: forward reaction, Tris-HCl pH 8.0, 2-oxoglutarate and NADPH, room temperature; remark: listed apart in the source

For OCCSSCCO [2-HED], the “second order inactivation rate constant” value [1] was 0.937 M⁻¹ s⁻¹.

“AnGDH (NADP-glutamate dehydrogenase from Aspergillus niger, recombinant) (Aspergillus niger; C415S)” showed a K0.5 (O=C(O)CCC(=O)C(=O)O) of 15.50 mM and a Km (N[C@@H](CCC(=O)O)C(=O)O) of 36800 µM.

Molecule “AnGDH (NADP-glutamate dehydrogenase from Aspergillus niger, recombinant) (Aspergillus niger; C141S)” has a Km (N) of 1200 µM, a K0.5 (O=C(O)CCC(=O)C(=O)O) of 4.00 mM and a Km (N[C@@H](CCC(=O)O)C(=O)O) of 28600 µM.

N[C@@H](CSSC[C@H](N)C(=O)O)C(=O)O [Cystine] was tested, and the “Residual activity (%) / Forward” value [2] was 8.3±1.9%.

B1: AnGDH (NADP-glutamate dehydrogenase from Aspergillus niger, recombinant) (Aspergillus niger) (protein)
chain: MSNLPHEPEFEQAYKELASTLENSTLFQKNPEYRKALAVVSVPERVIQFRVVWEDDAGNVQVNRGFRVQFNSALGPYKGGLRFHPSVNLSILKFLGFEQIFKNALTGLNMGGGKGGSDFDPKGKSDNEIRRFCVSFMTELCKHIGADTDVPAGDIGVTGREVGFLFGQYRKIRNQWEGVLTGKGGSWGGSLIRPEATGYGVVYYVEHMIAHATNGQESFKGKRVAISGSGNVAQYAALKVIELGGSVVSLSDSQGSLIINGEGSFTPEEIELIAQTKVERKQLASIVGAAPFSDANKFKYIAGARPWVHVGKVDVALPSATQNEISGEEAQVLINAGCKFIAEGSNMGCTQEAIDTFEAHRTANAGAAAIWYAPGKAANAGGVAVSGLEMAQNSARLSWTSEEVDARLKDIMRDCFKNGLETAQEYATPAEGVLPSLVTGSNIAGFTKVAAAMKDQGDWW
notes: full-length cDNA in pET43.1(b) NdeI/HindIII, E. coli BL21(DE3), without a tag, purified
Work on B1 yielded a Km (purified protein [3]) of 30900 µM, a K0.5 (purified protein [4]) of 5.70 mM and a Km (purified protein [5]) of 23 µM. It also gave a Km (purified protein [6]) of 28 µM and a Km (purified protein [7]) of 1100 µM.
